Reference: PMC10641069, “Intra- and inter-molecular regulation by intrinsically-disordered regions governs PUF protein RNA binding” (Nature Communications, 2023)
Where a chain is given by its changes, count along the chain named. Several values for one entry are separate records, joined by “and”; a condition that tells them apart may be missing. Equal values may be shown once. Read-outs that look alike come from different tables or passages of the source.

B1: cFBE RNA (ssRNA)
RNA: CUGUGAAUG
B2: gld-1 FBEa RNA (SPR) (ssRNA)
RNA: AUCAUGUGCCAUACA
B3: LST-1 B peptide (LST-1 residues 67-98) (peptide, UniProt P91820 67-98, looked up)
chain: SSSPQQRSGLRSQKLHLTYIEKNKRVRAMIPQ
notes: The tag was cleaved with Ulp1 protease; also called LST-1^67–98; source: E. coli, purified (Ni-NTA, heparin, Superdex 75); not shown: His6-SUMO, N-terminal, cleaved
B4: FBF-2 RBD + CT (FBF-2 residues 164-632) (domain or fragment, C. elegans, UniProt Q09312 164-632, looked up)
chain: SNNVLPTWSLDSNGEMRSRLSLSEVLDSGDLMKFAVDKTGCQFLEKAVKGSLTSYQKFQLFEQVIGRKDDFLKLSTNIFGNYLVQSVIGISLATNDDGYTKRQEKLKNFISSQMTDMCLDKFACRVIQSSLQNMDLSLACKLVQALPRDARLIAICVDQNANHVIQKVVAVIPLKNWEFIVDFVATPEHLRQICSDKYGCRVVQTIIEKLTADSMNVDLTSAAQNLRERALQRLMTSVTNRCQELATNEYANYIIQHIVSNDDLAVYRECIIEKCLMRNLLSLSQEKFASHVVEKAFLHAPLELLAEMMDEIFDGYIPHPDTGKDALDIMMFHQFGNYVVQCMLTICCDAVSGRRQTKEGGYDHAISFQDWLKKLHSRVTKERHRLSRFSSGKKMIETLANLRSTHPIYELQSSGHDSFKTDYFSTASEHDGPELEKNGIEEGSLMLEPRSNKSSVSVKFSSSGSHGDD
notes: The tag was cleaved with Ulp1 protease; also called FBF-2^164–632; wild type RBD + CT; source: E. coli BL21-CodonPlus (DE3)-RIL, purified (Ni-NTA, heparin, Superdex 75); not shown: His6-SUMO, N-terminal, cleaved

Legend:
FBF-2 RBD+CT [1] = biological target: T1, FBF-2 RBD+CT (Caenorhabditis elegans, UniProt Q09312 164-632); assay: crystal structure; 2.1 A; 30% PEG 400, 0.1 M Tris pH 8.5; EMSA: FBF-2 in 20 mM HEPES pH 7.4, 150 mM NaCl, 0.5 mM TCEP mixed 1:1 with 5 nM final RNA in 10 mM HEPES pH 7.4, 0.01% Tween 20, 0.1 mg/ml BSA, 0.1 mg/ml yeast; conditions: protein: recombinant; tags: none (His6-SUMO removed with Ulp1)
T1 sequence: B4 chain

FBF-2 RBD+CT [2] = biological target: T1, FBF-2 RBD+CT; assay: SPR; kon 7.1e4 M-1 s-1, koff 4.42e-3 s-1; EMSA: FBF-2 in 20 mM HEPES pH 7.4, 150 mM NaCl, 0.5 mM TCEP mixed 1:1 with 5 nM final RNA in 10 mM HEPES pH 7.4, 0.01% Tween 20, 0.1 mg/ml BSA, 0.1 mg/ml yeast; conditions: protein: recombinant; tags: none (His6-SUMO removed with Ulp1); label: 3'-biotin
FBF-2 RBD+CT L610A = biological target: T2, FBF-2 RBD+CT L610A (Caenorhabditis elegans, UniProt Q09312 164-632, L610A); assay: SPR; kon 15.5e4 M-1 s-1, koff 1.36e-3 s-1; EMSA: FBF-2 in 20 mM HEPES pH 7.4, 150 mM NaCl, 0.5 mM TCEP mixed 1:1 with 5 nM final RNA in 10 mM HEPES pH 7.4, 0.01% Tween 20, 0.1 mg/ml BSA, 0.1 mg/ml yeast; conditions: protein: recombinant; tags: none (His6-SUMO removed with Ulp1); label: 3'-biotin
T2 sequence: B4 chain with L447A

FBF-2 RBD = biological target: T3, FBF-2 RBD (Caenorhabditis elegans, UniProt Q09312 164-575); assay: SPR; kon 13.6e4 M-1 s-1, koff 0.86e-3 s-1; EMSA: FBF-2 in 20 mM HEPES pH 7.4, 150 mM NaCl, 0.5 mM TCEP mixed 1:1 with 5 nM final RNA in 10 mM HEPES pH 7.4, 0.01% Tween 20, 0.1 mg/ml BSA, 0.1 mg/ml yeast; conditions: protein: recombinant; tags: none (His6-SUMO removed with TEV protease); label: 3'-biotin
T3 sequence: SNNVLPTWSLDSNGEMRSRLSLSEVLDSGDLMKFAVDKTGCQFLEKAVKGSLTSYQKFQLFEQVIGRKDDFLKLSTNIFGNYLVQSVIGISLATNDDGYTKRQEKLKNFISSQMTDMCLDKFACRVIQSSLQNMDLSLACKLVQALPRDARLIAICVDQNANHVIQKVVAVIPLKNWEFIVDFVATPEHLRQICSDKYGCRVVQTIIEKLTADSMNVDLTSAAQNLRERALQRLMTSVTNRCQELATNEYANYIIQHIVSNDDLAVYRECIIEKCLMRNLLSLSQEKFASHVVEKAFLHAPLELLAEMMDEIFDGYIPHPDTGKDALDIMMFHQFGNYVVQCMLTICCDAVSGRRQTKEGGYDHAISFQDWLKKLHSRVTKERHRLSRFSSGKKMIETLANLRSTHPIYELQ

FBF-2 RBD+CT Y479A = biological target: T4, FBF-2 RBD+CT Y479A (Caenorhabditis elegans, UniProt Q09312 164-632, Y479A); assay: SPR; kon 10.2e4 M-1 s-1, koff 1.18e-3 s-1; EMSA: FBF-2 in 20 mM HEPES pH 7.4, 150 mM NaCl, 0.5 mM TCEP mixed 1:1 with 5 nM final RNA in 10 mM HEPES pH 7.4, 0.01% Tween 20, 0.1 mg/ml BSA, 0.1 mg/ml yeast; conditions: protein: recombinant; tags: none (His6-SUMO removed with Ulp1); label: 3'-biotin
T4 sequence: B4 chain with Y316A

FBF-2 RBD+CT Loop6A = biological target: T5, FBF-2 RBD+CT Loop6A (Caenorhabditis elegans, UniProt Q09312 164-632, E592A;D594A;E597A;E599A;E604A;E605A); assay: SPR; kon 10.9e4 M-1 s-1, koff 0.94e-3 s-1; EMSA: FBF-2 in 20 mM HEPES pH 7.4, 150 mM NaCl, 0.5 mM TCEP mixed 1:1 with 5 nM final RNA in 10 mM HEPES pH 7.4, 0.01% Tween 20, 0.1 mg/ml BSA, 0.1 mg/ml yeast; conditions: protein: recombinant; tags: none (His6-SUMO removed with Ulp1); label: 3'-biotin
T5 sequence: B4 chain with E429A, D431A, E434A, E436A, E441A, E442A

FBF-2 RBD + CT Loop6A [3] = biological target: T6, FBF-2 RBD + CT Loop6A (C. elegans, UniProt Q09312 164-632, E592A | D594A | E597A | E599A | E604A | E605A); assay: ITC; peptide (100–400 µM) titrated from the syringe into the cell containing FBF-2 (10–30 µM); 20 °C; 20 mM HEPES pH 7.4, 150 mM NaCl, 0.5 mM TCEP; no RNA; one-site model; mean of two replicates; conditions: both partners purified
T6 construct: source: E. coli, expressed and purified like wild type proteins; not shown: His6-SUMO, N-terminal, cleaved
T6 sequence (looked up): B4 chain with E429A, D431A, E434A, E436A, E441A, E442A

[4] = biological target: B4; assay: as above; conditions: both partners purified
FBF-2 RBD + CT L610A [5] = biological target: T7, FBF-2 RBD + CT L610A (C. elegans, UniProt Q09312 164-632, L610A); assay: as above; conditions: both partners purified
T7 construct: source: E. coli, expressed and purified like wild type proteins; not shown: His6-SUMO, N-terminal, cleaved
T7 sequence (looked up): B4 chain with L447A

[6] = biological target: T8, FBF-2 RBD (FBF-2 residues 164-575) (C. elegans, UniProt Q09312 164-575); assay: ITC
T8 chain: T3 sequence

FBF-2 RBD + CT Loop6A [7] = biological target: T9, FBF-2 RBD + CT Loop6A (C. elegans, UniProt Q09312 164-632, E592A | D594A | E597A | E599A | E604A | E605A); assay: ITC
T9 sequence: B4 chain with E429A, D431A, E434A, E436A, E441A, E442A

FBF-2 RBD + CT L610A [8] = biological target: T10, FBF-2 RBD + CT L610A (C. elegans, UniProt Q09312 164-632, L610A); assay: ITC
T10 sequence: B4 chain with L447A

[9] = biological target: T11, FBF-2 RBD + CT (FBF-2 residues 164-632) (C. elegans, UniProt Q09312 164-632); assay: ITC
T11 chain: B4 chain

[10] = biological target: T8, FBF-2 RBD (FBF-2 residues 164-575); assay: ITC
[11] = biological target: B4; assay: cell-based or functional assay
[12] = biological target: the molecule itself; assay: crystal structure; FBF-2 RBD + CT with cFBE RNA (5′-CUGUGAAUG-3′), 2.1 Å; CT residues 607-613 seen bound to the RBD of the same construct (intramolecular by the paper's words)

B1: binds (FBF-2 RBD+CT [1]).

With B2 the Kd (FBF-2 RBD+CT [2]) was 65.1 ± 21.1 nM, the Kd (FBF-2 RBD+CT L610A) was 9.4 ± 3.6 nM and the Kd (FBF-2 RBD) was 6.6 ± 2.3 nM. The Kd (FBF-2 RBD+CT Y479A) was 12.9 ± 6.4 nM and the Kd (FBF-2 RBD+CT Loop6A) was 9.5 ± 4.2 nM.

For B3, the binding result (FBF-2 RBD + CT Loop6A [3]) was “binds”, the Kd [4] was 2700 nM and the Kd (FBF-2 RBD + CT L610A [5]) was 60 nM. For the same binder, the Kd [6] was 50 nM, the Kd (FBF-2 RBD + CT Loop6A [7]) was 1300 nM and 1100 nM and the Kd (FBF-2 RBD + CT L610A [8]) was 46 nM and 77 nM. For the same binder, the Kd [9] was 2100 nM and 3300 nM, the Kd [10] was 46 nM and 45 nM and the “RNA-binding affinity of FBF-2 RBD + CT for gld-1 FBEa RNA by EMSA in the presence of 50 µM LST-1 B” value [11] was 5 fold.

B4: binds [12].
